The text below walks through data of patent EP4335870A1.

In this test the target is SARS-CoV-2 Spike RBD K417N/N501Y (SARS-CoV-2) (UniProt P0DTC2).

pKd: −log10 of the molar value.

The pKd is −log10 of the Kd, conventionally taken in molar units. A low value points to a high Kd. Usually koff stands for a measure of how fast the partners let go of each other. A higher koff goes with fast dissociation. Usually kon stands for the rate constant with which the complex forms. The low end stands for slower complex formation, the high end for faster complex formation. Turning to “ACE2(T27Y/H34A/H374N)-IgG1Fc (from UniProt Q9BYF1 18-615) (Fc fusion)”, the pKd is 9.35, the off-rate (koff) amounted to 0.000334 s⁻¹ and the kon was 747000 M⁻¹ s⁻¹.
Taken in the same sequence, the figures for “ACE2-Fc IgG Hybrid Protein (ACE2-IgG1Fc, wildtype) (Fc fusion)” were 8.12, 0.00347 s⁻¹ and 457000 M⁻¹ s⁻¹.
